Test results from PMC9299608, “A Multi‐enzyme Cascade for the Biosynthesis of AICA Ribonucleoside Di‐ and Triphosphate” (Chembiochem, 2021).

Assays:
[1] = molecular target: T1, MrPPK (Meiothermus ruber, UniProt M9XB82); test: HPLC product quantification, Michaelis-Menten fit limited to data without substrate inhibition; format: biochemical; conditions: sodium polyphosphate as phosphate donor (standard assay 5 mM), MgCl2 20 mM, tris pH 8.0, 40 °C; not a true KM; reduced activity above 14 mM substrate
T1 construct: gene K649_10090; expressed in E. coli SHuffle T7 Express; IMAC and desalting
T1 sequence (M9XB82 1-267): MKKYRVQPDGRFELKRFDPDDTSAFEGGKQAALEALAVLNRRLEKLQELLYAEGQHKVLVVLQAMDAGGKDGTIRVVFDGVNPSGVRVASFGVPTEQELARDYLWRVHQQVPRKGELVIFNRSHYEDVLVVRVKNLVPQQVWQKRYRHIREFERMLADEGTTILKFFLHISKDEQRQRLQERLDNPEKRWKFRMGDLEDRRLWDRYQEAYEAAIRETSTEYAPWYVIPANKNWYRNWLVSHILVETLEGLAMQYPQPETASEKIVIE
Excerpt: HPLC product quantification, Michaelis-Menten fit limited to data without substrate inhibition on MrPPK

[2] = tested on: NC(=O)c1ncn([C@@H]2O[C@H](COP(=O)(O)O)[C@@H](O)[C@H]2O)c1N; test: purified protein; conditions: sodium polyphosphate as phosphate donor (standard assay 5 mM), MgCl2 20 mM, tris pH 8.0, 30 °C
[3] = substrate: NC(=O)c1[nH]cnc1N; test: HPLC product quantification, Michaelis-Menten fit; format: biochemical, Escherichia coli; conditions: co-substrate PRPP, MgCl2 20 mM, tris pH 8.0, standard assay 40 °C (kinetics under conditions optimized for each cascade), text b32 gives 6.2
Excerpt: HPLC product quantification, Michaelis-Menten fit on EcAPT

Molecule: NC(=O)c1ncn([C@@H]2O[C@H](COP(=O)(O)O)[C@@H](O)[C@H]2O)c1N [ZMP]
- Km [1]: > 8.6 mM

Molecule: AjPPK (Acinetobacter johnsonii)
- Km [2]: 8.2 ± 1.4 mM
- Vmax [2]: 67 µmol/min/mg

B1: EcAPT (Escherichia coli K-12) (protein)
chain: MTATAQQLEYLKNSIKSIQDYPKPGILFRDVTSLLEDPKAYALSIDLLVERYKNAGITKVVGTEARGFLFGAPVALGLGVGFVPVRKPGKLPRETISETYDLEYGTDQLEIHVDAIKPGDKVLVVDDLLATGGTIEATVKLIRRLGGEVADAAFIINLFDLGGEQRLEKQGITSYSLVPFPGH
notes: expressed in E. coli BL21(DE3); IMAC and desalting
- Km [3]: 6.3 ± 2.3 mM
- Vmax [3]: 8.6 µmol/min/mg
